From publication PMC3873459

How the values were obtained:
[1] = target: recombinant HLA-DR1 protein bound to a hemagglutinin (HA) peptide; assay: pull-down
[2] = target: pfiT, tag-less (GST removed with PreScission protease) (Pseudomonas fluorescens); assay: AUC; sedimentation velocity, pfiT alone at 3.6 µM, 20°C, 50,000 rpm, 10 mM Hepes pH 7.4, 150 mM NaCl, 2 mM DTT; c(s) and c(M) distributions (SEDFIT)
[3] = target: pfiT, tag-less (GST removed with PreScission protease) (Pseudomonas fluorescens); assay: AUC; sedimentation equilibrium, pfiT alone at 9 µM and 18 µM, 20°C, 20,000/25,000/30,000 rpm, HBS; global fit with monomer-dimer model (SEDPHAT); dimer to monomers

“pfiT, tag-less (GST removed with PreScission protease) (natural protein)” was tested, and the IC50 [1] was 47 µM, the stoichiometry N [2] was 2 and the Kd [3] was 0.15 µM.
